# Results published in patent US20250188133A1, “CHIMERIC BACTERIOCINS AND METHOD FOR THE CONTROL OF PSEUDOMONAS” (priority 2022, published 2025).
# Legend:
# Format in all cases: cell-based
# P. aeruginosa 13-18499 = assay: agar disc-diffusion assay; conditions: strain 13-18499; 0.3, 3 and 30 μg of protein spotted on discs on CAA agar lawn, overnight
# Protocol: (§1) Overnight P. aeruginosa cultures grown in CAA medium were equalized till OD595=1.0 in CAA and diluted 100×. Sterile cotton swab was briefly submerged in diluted microbial suspension, removing the excess of liquid by pressing it against the container wall. The swab was used for evenly streaking bacteria on plates containing growth medium with CAA solid agar (1.5%). 6 mm diameter sterile Whatman discs were placed on soft-agar and 0.3-30 μg of chimeric pyocins were spotted to paper disks. The plates were incubated overnight at 37° C. and bacteriocin inhibition zones were observed.
# (§2) Next, all 25 P. aeruginosa strains were subjected to agar disc-diffusion assay by spotting different amounts of purified pyocin S5 (0.3 μg, 3 μg and 30 μg) on bacteria lawns. Six P. aeruginosa strains were resistant to pyocin S5. Four of these six strains were pyocin S5 and immunity protein-encoding strains—PA14, PAO1, […] and NCTC 13921. Two cystic fibrosis isolates, 12-35708 and 12-29165 were also completely resistant to pyocin S5, despite the absence of S5, or S5 immunity protein coding genes. […] Turbid inhibition zones were detected when 3 μg and 30 μg of S5 were spotted on the lawn of these strains (Table 1, FIG. 3).
# P. aeruginosa A19 = assay: agar disc-diffusion assay; conditions: strain A19; 0.3, 3 and 30 μg of protein spotted on discs on CAA agar lawn, overnight
# Protocol: as §1, §2
# P. aeruginosa ATCC 19660 = assay: agar disc-diffusion assay; conditions: strain ATCC 19660; 0.3, 3 and 30 μg of protein spotted on discs on CAA agar lawn, overnight
# Protocol: as §1, §2
# P. aeruginosa ATCC 29260 = assay: agar disc-diffusion assay; conditions: strain ATCC 29260; 0.3, 3 and 30 μg of protein spotted on discs on CAA agar lawn, overnight
# Protocol: as §1, §2
# P. aeruginosa BI80 = assay: agar disc-diffusion assay; conditions: strain BI80; 0.3, 3 and 30 μg of protein spotted on discs on CAA agar lawn, overnight
# Protocol: as §1, §2
# P. aeruginosa BL77 = assay: agar disc-diffusion assay; conditions: strain BL77; 0.3, 3 and 30 μg of protein spotted on discs on CAA agar lawn, overnight
# Protocol: as §1, §2
# P. aeruginosa BR79 = assay: agar disc-diffusion assay; conditions: strain BR79; 0.3, 3 and 30 μg of protein spotted on discs on CAA agar lawn, overnight
# Protocol: as §1, §2
# [1] = tested on: P. aeruginosa Boston 41501 (ATCC 27853); assay: agar disc-diffusion assay; conditions: strain Boston; 0.3, 3 and 30 μg of protein spotted on discs on CAA agar lawn, overnight
# Protocol: as §1, §2
# P. aeruginosa Bu002 = assay: agar disc-diffusion assay; conditions: strain Bu002; 0.3, 3 and 30 μg of protein spotted on discs on CAA agar lawn, overnight
# Protocol: as §1, §2
# P. aeruginosa EY76 = assay: agar disc-diffusion assay; conditions: strain EY76; 0.3, 3 and 30 μg of protein spotted on discs on CAA agar lawn, overnight
# Protocol: as §1, §2
# P. aeruginosa HP1 = assay: agar disc-diffusion assay; conditions: strain HP1; 0.3, 3 and 30 μg of protein spotted on discs on CAA agar lawn, overnight
# Protocol: as §1, §2
# P. aeruginosa HP40 = assay: agar disc-diffusion assay; conditions: strain HP40; 0.3, 3 and 30 μg of protein spotted on discs on CAA agar lawn, overnight
# Protocol: as §1, §2
# P. aeruginosa HP41 = assay: agar disc-diffusion assay; conditions: strain HP41; 0.3, 3 and 30 μg of protein spotted on discs on CAA agar lawn, overnight
# Protocol: as §1, §2
# P. aeruginosa HP52 = assay: agar disc-diffusion assay; conditions: strain HP52; 0.3, 3 and 30 μg of protein spotted on discs on CAA agar lawn, overnight
# Protocol: as §1, §2
# P. aeruginosa HP6 = assay: agar disc-diffusion assay; conditions: strain HP6; 0.3, 3 and 30 μg of protein spotted on discs on CAA agar lawn, overnight
# Protocol: as §1, §2
# P. aeruginosa HP75 = assay: agar disc-diffusion assay; conditions: strain HP75; 0.3, 3 and 30 μg of protein spotted on discs on CAA agar lawn, overnight
# Protocol: as §1, §2
# P. aeruginosa HP7 = assay: agar disc-diffusion assay; conditions: strain HP7; 0.3, 3 and 30 μg of protein spotted on discs on CAA agar lawn, overnight
# Protocol: as §1, §2
# P. aeruginosa NCTC 13437 = assay: agar disc-diffusion assay; conditions: strain NCTC 13437; 0.3, 3 and 30 μg of protein spotted on discs on CAA agar lawn, overnight
# Protocol: as §1, §2
# P. aeruginosa NCTC 13921 = assay: agar disc-diffusion assay; conditions: strain NCTC 13921; 0.3, 3 and 30 μg of protein spotted on discs on CAA agar lawn, overnight
# Protocol: as §1, §2
# P. aeruginosa PA14 = assay: agar disc-diffusion assay; conditions: strain PA14; 0.3, 3 and 30 μg of protein spotted on discs on CAA agar lawn, overnight
# Protocol: as §1, §2
# P. aeruginosa PAO1 = assay: agar disc-diffusion assay; conditions: strain PAO1; 0.3, 3 and 30 μg of protein spotted on discs on CAA agar lawn, overnight
# Protocol: as §1, §2
# P. aeruginosa Pr335 = assay: agar disc-diffusion assay; conditions: strain Pr335; 0.3, 3 and 30 μg of protein spotted on discs on CAA agar lawn, overnight
# Protocol: as §1, §2
# P. aeruginosa UR78 = assay: agar disc-diffusion assay; conditions: strain UR78; 0.3, 3 and 30 μg of protein spotted on discs on CAA agar lawn, overnight
# Protocol: as §1, §2
# P. aeruginosa strains = assay: agar disc-diffusion assay, panel of 25 strains
# Protocol: as §1, §2
molecule,measurement,setting,value
"S5-Pflu095: chimeric bacteriocin SEQ ID NO: 9: pyocin S5 first segment fused to P. fluorescens Pflu095 killing domain (protein, S5-Pflu095) MSNDNEVPGSMVIVAQGPDDQYAYEVPPIDSAAVAGNMFGDLIQREIYLQKNIYYPVRSIFEQGTKEKKEINKKVSDQVDGLLKQITQGKREATRQERVDVMSAVLHKMESDLEGYKKTFTKGPFIDYEKQSSLSIYEAWVKIWEKNSWEERKKYPFQQLVRDELERAVAYYKQDSLSEAVKVLRQELNKQKALKEKEDLSQLERDYRTRKANLEMKVQSELDQAGSALPPLVSPTPEQWLERATRLVTQAIADKKQLQTTNNTLIKNSPTPLEKQKAIYNGELLVDEIASLQARLVKLNAETTRRRTEKDKVRTEVVDIEAAIKFTSDFYAEAGVRFGDSASKLASDLADSAQGKKIRSADEAFKAFDKYKNELDKKFSVKDRAAAAKYIDSIDYEAIGKAATKFSKGLGYVGPVIDAKDSIIEFINSMESGDWKPFFLKLESIALGLAATAFVGIAFGFIATTPMGILAFAFIVAATGAAIDDNFAEKLNKFVSSL",Activity in agar disc-diffusion assay,P. aeruginosa 13-18499,** (activity detected with 3 μg of protein)
same,Activity in agar disc-diffusion assay,P. aeruginosa A19,*** (activity detected with 0.3 μg of protein)
same,Activity in agar disc-diffusion assay,P. aeruginosa ATCC 19660,* (activity detected only with 30 μg of protein)
same,Activity in agar disc-diffusion assay,P. aeruginosa ATCC 29260,*** (activity detected with 0.3 μg of protein)
same,Activity in agar disc-diffusion assay,P. aeruginosa BI80,*** (activity detected with 0.3 μg of protein)
same,Activity in agar disc-diffusion assay,P. aeruginosa BL77,** (activity detected with 3 μg of protein)
same,Activity in agar disc-diffusion assay,P. aeruginosa BR79,** (activity detected with 3 μg of protein)
same,Activity in agar disc-diffusion assay,[1],*** (activity detected with 0.3 μg of protein)
same,Activity in agar disc-diffusion assay,P. aeruginosa Bu002,*** (activity detected with 0.3 μg of protein)
same,Activity in agar disc-diffusion assay,P. aeruginosa EY76,*** (activity detected with 0.3 μg of protein)
same,Activity in agar disc-diffusion assay,P. aeruginosa HP1,*** (activity detected with 0.3 μg of protein)
same,Activity in agar disc-diffusion assay,P. aeruginosa HP40,*** (activity detected with 0.3 μg of protein)
same,Activity in agar disc-diffusion assay,P. aeruginosa HP41,*** (activity detected with 0.3 μg of protein)
same,Activity in agar disc-diffusion assay,P. aeruginosa HP52,** (activity detected with 3 μg of protein)
same,Activity in agar disc-diffusion assay,P. aeruginosa HP6,*** (activity detected with 0.3 μg of protein)
same,Activity in agar disc-diffusion assay,P. aeruginosa HP75,* (activity detected only with 30 μg of protein)
same,Activity in agar disc-diffusion assay,P. aeruginosa HP7,*** (activity detected with 0.3 μg of protein)
same,Activity in agar disc-diffusion assay,P. aeruginosa NCTC 13437,* (activity detected only with 30 μg of protein)
same,Activity in agar disc-diffusion assay,P. aeruginosa NCTC 13921,*** (activity detected with 0.3 μg of protein)
same,Activity in agar disc-diffusion assay,P. aeruginosa PA14,** (activity detected with 3 μg of protein)
same,Activity in agar disc-diffusion assay,P. aeruginosa PAO1,*** (activity detected with 0.3 μg of protein)
same,Activity in agar disc-diffusion assay,P. aeruginosa Pr335,*** (activity detected with 0.3 μg of protein)
same,Activity in agar disc-diffusion assay,P. aeruginosa UR78,*** (activity detected with 0.3 μg of protein)
same,inhibition on lawns of S5 producer strains HP6 and HP7,"P. aeruginosa strains; clinical isolates HP6 and HP7, S5 gave turbid zones with 3 μg and 30 μg",significantly larger and clearer than those formed by S5
same,activity spectrum / profile in agar disc diffusion assay,"P. aeruginosa strains; panel of 25 P. aeruginosa strains, in words",broadened activity spectrum in comparison to pyocin S5
same,inhibition zones on lawns of S5-producing strains,"P. aeruginosa strains; six pyocin S5 and immunity gene-positive strains (PA14, PAO1, HP6, HP7, ATCC 19660, NCTC 13921)",formed inhibition zones on the lawns of all six S5-producing strains
